For data set [1], the system named is HeLa Kyoto. Description: solubility change mitosis vs G1/S (difference of NP-40 vs SDS log2 ratios) (log2 ratio difference); higher = more soluble in mitosis.
In data set [2] the test system is HeLa Kyoto. Kind of data set: melting temperature (median over replicates), in situ; higher = more thermally stable.
The subject of data set [3] is HeLa Kyoto. Kind of data set: thermal stability score vs G1/S (z-score of summed log2 fold changes over temperatures); higher = more thermally stable than in G1/S.
Data set [4] relates to HeLa Kyoto. Kind of data set: solubility in G1/S (NP-40 vs SDS abundance) (log2 ratio); higher = more soluble. The conditions noted are these: cell cycle stage: G1/S.
The mark [5] stands for this setting: cell cycle stage: early G1 (4.5 h after nocodazole release).
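Throughout, for melting temperature (median over replicates), in situ: HeLa Kyoto cells synchronized by double thymidine or nocodazole block, proteins quantified by TMT10plex mass spectrometry, three independent biological replicates.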
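Throughout, for solubility change mitosis vs G1/S (difference of NP-40 vs SDS log2 ratios): synchronized HeLa Kyoto cells (double thymidine block for G1/S, nocodazole release for mitosis), protein amounts in NP-40 versus SDS lysates quantified by mass spectrometry, three biological replicates.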
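Throughout, for solubility in G1/S (NP-40 vs SDS abundance): HeLa Kyoto cells arrested at G1/S by double thymidine block, proteins quantified by TMT10plex mass spectrometry in mild NP-40 versus SDS extracts, three biological replicates.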
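Throughout, for thermal stability score vs G1/S (z-score of summed log2 fold changes over temperatures): synchronized HeLa Kyoto cells, proteins quantified by TMT10plex mass spectrometry, three biological replicates, mitosis taken 0.5 h after nocodazole release, G1/S directly after double thymidine block.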

Regarding “MASSAQSGGSSGGPAVPTVQRGIIKMVLSGCAIIVRGQPRGGPPPERQINLSNIRAGNLARRAAATQPDAKDTPDEPWAFPAREFLRKKLIGKEVCFTIENKTPQGREYGMIYLGKDTNGENIAESLVAEGLATRREGMRANNPEQNRLSECEEQAKAAKKGMWSEGNGSHTIRDLKYTIENPRHFVDSHHQKPVNAIIEHVRDGSVVRALLLPDYYLVTVMLSGIKCPTFRREADGSETPEPFAAEAKFFTESRLLQRDVQIILESCHNQNILGTILHPNGNITELLLKEGFARCVDWSIAVYTRGAEKLRAAERFAKERRLRIWRDYVAPTANLDQKDKQFVAKVMQVLNADAIVVKLNSGDYKTIHLSSIRPPRLEGENTQDKNKKLRPLYDIPYMFEAREFLRKKLIGKKVNVTVDYIRPASPATETVPAFSERTCATVTIGGINIAEALVSKGLATVIRYRQDDDQRSSHYDELLAAEARAIKNGKGLHSKKEVPIHRVADISGDTQKAKQFLPFLQRAGRSEAVVEYVFSGSRLKLYLPKETCLITFLLAGIECPRGARNLPGLVQEGEPFSEEATLFTKELVLQREVEVEVESMDKAGNFIGWLHIDGANLSVLLVEHALSKVHFTAERSSYYKSLLSAEEAAKQKKEKVWAHYEEQPVEEVMPVLEEKERSASYKPVFVTEITDDLHFYVQDVETGTQLEKLMENMRNDIASHPPVEGSYAPRRGEFCIAKFVDGEWYRARVEKVESPAKIHVFYIDYGNREVLPSTRLGTLSPAFSTRVLPAQATEYAFAFIQVPQDDDARTDAVDSVVRDIQNTQCLLNVEHLSAGCPHVTLQFADSKGDVGLGLVKEGLVMVEVRKEKQFQKVITEYLNAQESAKSARLNLWRYGDFRADDADEFGYSR [SND1]”, the “solubility change mitosis (log2)” value in the data set with HeLa Kyoto [1] was 0.0116. For the same sequence, the melting temperature is 47.9 °C in the data set on HeLa Kyoto [2] (cell cycle stage: G1/S) and 48.1 °C in the data set on HeLa Kyoto [2] (cell cycle stage: mitosis). Also, the results for the thermal stability score in the data set on HeLa Kyoto [3] (setting [5]) and in the data set with HeLa Kyoto [3] (cell cycle stage: mitosis) were 0.34 and 3.69, respectively. In addition, the “solubility in G1/S (log2)” value in the data set on HeLa Kyoto [4] is -0.0826.
With “MASSGEDISNDDDDMHPAAAGMADGVHLLGFSDEILLHILSHVPSTDLILNVRRTCRKLAALCLDKSLIHTVLLQKDYQASEDKVRQLVKEIGREIQQLSMAGCYWLPGSTVEHVARCRSLVKVNLSGCHLTSLRLSKMLSALQHLRSLAIDVSPGFDASQLSSECKATLSRVRELKQTLFTPSYGVVPCCTSLEKLLLYFEILDRTREGAILSGQLMVGQSNVPHYQNLRVFYARLAPGYINQEVVRLYLAVLSDRTPQNLHAFLISVPGSFAESGATKNLLDSMARNVVLDALQLPKSWLNGSSLLQHMKFNNPFYFSFSRCTLSGGHLIQQVINGGKDLRSLASLNLSGCVHCLSPDSLLRKAEDDIDSSILETLVASCCNLRHLNLSAAHHHSSEGLGRHLCQLLARLRHLRSLSLPVCSVADSAPRADRAPAQPAMHAVPRGFGKKVRVGVQSCPSPFSGQACPQPSSVFWSLLKNLPFLEHLELIGSNFSSAMPRNEPAIRNSLPPCSRAQSVGDSEVAAIGQLAFLRHLTLAQLPSVLTGSGLVNIGLQCQQLRSLSLANLGMMGKVVYMPALSDMLKHCKRLRDLRLEQPYFSANAQFFQALSQCPSLQRLCLVSRSGTLQPDAVLAFMARCLQVVMCHLFTGESLATCKSLQQSLLRSFQAERPALNVVIFPLLHEGLTDVIRDVPLVHLDEITLFKSRVAEEPPNLWW [FBXL18]”, the “solubility change mitosis (log2)” value in the data set on HeLa Kyoto [1] was -0.164. Also, the values for the melting temperature with HeLa Kyoto [2] (cell cycle stage: G1/S) and with HeLa Kyoto [2] (cell cycle stage: mitosis) were 53.4 °C and 53 °C, respectively. In addition, the thermal stability score was -1.04 in the data set with HeLa Kyoto [3] (setting [5]) and -1.17 in the data set on HeLa Kyoto [3] (cell cycle stage: mitosis). Also, the “solubility in G1/S (log2)” value in the data set on HeLa Kyoto [4] was 0.1.
As to “MASSRCPAPRGCRCLPGASLAWLGTVLLLLADWVLLRTALPRIFSLLVPTALPLLRVWAVGLSRWAVLWLGACGVLRATVGSKSENAGAQGWLAALKPLAAALGLALPGLALFRELISWGAPGSADSTRLLHWGSHPTAFVVSYAAALPAAALWHKLGSLWVPGGQGGSGNPVRRLLGCLGSETRRLSLFLVLVVLSSLGEMAIPFFTGRLTDWILQDGSADTFTRNLTLMSILTIASAVLEFVGDGIYNNTMGHVHSHLQGEVFGAVLRQETEFFQQNQTGNIMSRVTEDTSTLSDSLSENLSLFLWYLVRGLCLLGIMLWGSVSLTMVTLITLPLLFLLPKKVGKWYQLLEVQVRESLAKSSQVAIEALSAMPTVRSFANEEGEAQKFREKLQEIKTLNQKEAVAYAVNSWTTSISGMLLKVGILYIGGQLVTSGAVSSGNLVTFVLYQMQFTQAVEVLLSIYPRVQKAVGSSEKIFEYLDRTPRCPPSGLLTPLHLEGLVQFQDVSFAYPNRPDVLVLQGLTFTLRPGEVTALVGPNGSGKSTVAALLQNLYQPTGGQLLLDGKPLPQYEHRYLHRQVAAVGQEPQVFGRSLQENIAYGLTQKPTMEEITAAAVKSGAHSFISGLPQGYDTEVDEAGSQLSGGQRQAVALARALIRKPCVLILDDATSALDANSQLQVEQLLYESPERYSRSVLLITQHLSLVEQADHILFLEGGAIREGGTHQQLMEKKGCYWAMVQAPADAPE [TAP1]”, the “solubility change mitosis (log2)” value in the data set with HeLa Kyoto [1] was -0.112. Moreover, the figures for the melting temperature with HeLa Kyoto [2] (cell cycle stage: G1/S) and with HeLa Kyoto [2] (cell cycle stage: mitosis) were 49.8 °C and 50.5 °C, respectively. For the same sequence, the thermal stability score in the data set on HeLa Kyoto [3] (setting [5]) was 0.594; in the data set with HeLa Kyoto [3] (cell cycle stage: mitosis), 1.74. Besides, the “solubility in G1/S (log2)” value with HeLa Kyoto [4] is -0.0535.
Take “MASTDYSTYSQAAAQQGYSAYTAQPTQGYAQTTQAYGQQSYGTYGQPTDVSYTQAQTTATYGQTAYATSYGQPPTGYTTPTAPQAYSQPVQGYGTGAYDTTTATVTTTQASYAAQSAYGTQPAYPAYGQQPAATAPTRPQDGNKPTETSQPQSSTGGYNQPSLGYGQSNYSYPQVPGSYPMQPVTAPPSYPPTSYSSTQPTSYDQSSYSQQNTYGQPSSYGQQSSYGQQSSYGQQPPTSYPPQTGSYSQAPSQYSQQSSSYGQQSSFRQDHPSSMGVYGQESGGFSGPGENRSMSGPDNRGRGRGGFDRGGMSRGGRGGGRGGMGSAGERGGFNKPGGPMDEGPDLDLGPPVDPDEDSDNSAIYVQGLNDSVTLDDLADFFKQCGVVKMNKRTGQPMIHIYLDKETGKPKGDATVSYEDPPTAKAAVEWFDGKDFQGSKLKVSLARKKPPMNSMRGGLPPREGRGMPPPLRGGPGGPGGPGGPMGRMGGRGGDRGGFPPRGPRGSRGNPSGGGNVQHRAGDWQCPNPGCGNQNFAWRTECNQCKAPKPEGFLPPPFPPPGGDRGRGGPGGMRGGRGGLMDRGGPGGMFRGGRGGDRGGFRGGRGMDRGGFGGGRRGGPGGPPGPLMEQMGGRRGGRGGPGKMDKGEHRQERRDRPY [EWSR1]”: in the data set on HeLa Kyoto [1], the “solubility change mitosis (log2)” value came out at 0.157. The melting temperature with HeLa Kyoto [2] (cell cycle stage: G1/S) was found to be 55.6 °C; in the data set with HeLa Kyoto [2] (cell cycle stage: mitosis), 55.8 °C. Besides, the figures for the thermal stability score in the data set on HeLa Kyoto [3] (setting [5]) and in the data set with HeLa Kyoto [3] (cell cycle stage: mitosis) were 0.0358 and 0.453, respectively. Moreover, the “solubility in G1/S (log2)” value in the data set with HeLa Kyoto [4] came to 0.0308.

(Values after the supplement of paper PMC5998384.)
